The text below walks through data of US20210292384A1 (LARIX BIOSCIENCE, published 2021).

Where a chain is given by its changes, count along the chain named. In names and notes the source's numbering stands.

The Kd is a measure of binding affinity in units of concentration. One may read the koff as the rate constant with which the complex falls apart. The kon is the second-order rate constant of association.

This assay deals with T1, RBD domain of SARS-CoV2 spike protein (SARS-CoV-2, UniProt P0DTC2 319-541).
T1 construct: domain: RBD domain
Briefly: Octet (BLI), ACE2-Fc against spike RBD. Background: Biolayer interferometry detects binding as a change in optical thickness at a sensor tip.

B1: LB697-D30E/L79W/N330Y (Fc fusion)
chain: QSTIEEQAKTFLEKFNHEAEDLFYQSSLASWNYNTNITEENVQNMNNAGDKWSAFLKEQSTWAQMYPLQEIQNLTVKLQLQALQQNGSSVLSEDKSKRLNTILNTMSTIYSTGKVCNPDNPQECLLLEPGLNEIMANSLDYNERLWAWESWRSEVGKQLRPLYEEYVVLKNEMARANHYEDYGDYWRGDYEVNGVDGYDYSRGQLIEDVEHTFEEIKPLYEHLHAYVRAKLMNAYPSYISPIGCLPAHLLGDMWGRFWTNLYSLTVPFGQKPNIDVTDAMVDQAWDAQRIFKEAEKFFVSVGLPNMTQGFWEYSMLTDPGNVQKAVCHPTAWDLGKGDFRILMCTKVTMDDFLTAHHEMGHIQYDMAYAAQPFLLRNGANEGFHEAVGEIMSLSAATPKHLKSIGLLSPDFQEDNETEINFLLKQALTIVGTLPFTYMLEKWRWMVFKGEIPKDQWMKKWWEMKREIVGVVEPVPHDETYCDPASLFHVSNDYSFIRYYTRTLYQFQFQEALCQAAKHEGPLHKCDISNSTEAGQKLFNMLRLGKSEPWTLALENVVGAKNMNVRPLLNYFEPLFTWLKDQNKNSFVGWSTDWSPYAD
B1 showed a dissociation constant (Kd) of 1.49 nM, an off-rate (koff) of 0.0012 s⁻¹ and an association rate constant (kon) of 808000 M⁻¹ s⁻¹.

B2: LB697-D30E/Q42K/L79W/N330Y (Fc fusion)
chain: B1 chain with Q25K
Regarding B2, the dissociation constant (Kd) was found to be 0.91 nM, the off-rate (koff) stood at 0.00074 s⁻¹ and the association rate constant (kon) is 810000 M⁻¹ s⁻¹.
